Tests used:
casp7_mouse Casp7 = biological target: T1, casp7_mouse Casp7 (UniProt P97864)
T1 sequence: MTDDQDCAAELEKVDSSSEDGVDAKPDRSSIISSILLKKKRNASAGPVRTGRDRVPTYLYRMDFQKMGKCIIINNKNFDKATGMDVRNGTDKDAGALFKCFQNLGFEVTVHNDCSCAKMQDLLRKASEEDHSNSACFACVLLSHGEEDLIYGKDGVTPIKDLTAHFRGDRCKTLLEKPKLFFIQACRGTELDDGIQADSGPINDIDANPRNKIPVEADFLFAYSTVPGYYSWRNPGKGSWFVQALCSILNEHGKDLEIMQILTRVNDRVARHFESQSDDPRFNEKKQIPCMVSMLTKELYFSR

casp3_mouse Casp3 [1] = biological target: T2, casp3_mouse Casp3 (UniProt P70677)
T2 sequence: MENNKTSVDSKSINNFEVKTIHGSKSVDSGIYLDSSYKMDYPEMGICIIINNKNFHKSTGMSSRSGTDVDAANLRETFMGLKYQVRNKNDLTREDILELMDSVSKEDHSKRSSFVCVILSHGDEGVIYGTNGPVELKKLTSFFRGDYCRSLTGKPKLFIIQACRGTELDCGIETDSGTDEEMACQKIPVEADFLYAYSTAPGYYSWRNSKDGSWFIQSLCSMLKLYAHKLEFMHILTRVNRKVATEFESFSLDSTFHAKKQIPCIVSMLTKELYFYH

casp3_mouse Casp3 [2] = biological target: T2, casp3_mouse Casp3; remark: listed apart in the source

effect of a mutation on the interaction (casp7_mouse Casp7)	effect of a mutation on the interaction (casp3_mouse Casp3 [1])	effect of a mutation on the interaction (casp3_mouse Casp3 [2])	Substance
decreasing interaction	increasing interaction		Small ribosomal subunit protein uS13 (Mus musculus) (from UniProt P62270) K88A
		increasing interaction	Small ribosomal subunit protein uS13 (Mus musculus) (from UniProt P62270) Q87A

From IntAct's records for PubMed 19759058
